This passage reports WAF1 mRNA level in HT1080 cells (Northern blot) results from patent US20030073084A1.

The assay concerns the target wild type p53 (human cells) (human) (UniProt P04637). Kind of assay: cell-based or functional assay.

On to “p28^ING1 (alternative splice variant of human ING1)”, for which the WAF1 mRNA level in HT1080 cells (Northern blot) fell in the range of 4 to 6 times.
